From patent US20180282426A1 (NOVIMMUNE S A, published 2018) come the findings set out here.

Experiment [1] has as its target T1, human TLR4/MD-2 complex on the surface of transfected CHO cells (human, UniProt O00206 24-839; Q9Y6Y9 19-160).
T1 construct: whole, on cells; also called TLR4/MD-2 transfected CHO cells; hTLR4/MD-2 transfected CHO cells
The experiment in a line: flow cytometry on TLR4/MD-2 transfected CHO cells, against an isotype matched control MAb. From the text: FIG. 26 is a graph illustrating that the VH and VL nucleotide sequence of 7E3 expressed as a chimeric MAb (“chimeric 7E3”) is capable of binding specifically to the human TLR4/MD-2 complex on the surface of transfected CHO cells. Monoclonal antibody binding to TLR4/MD-2 transfected CHO cells is shown by flow cytometry using chimeric 7E3 or an isotype matched control MAb at the indicated concentrations.
(§1) Specific binding of MAb at the indicated concentration was detected using an APC-labeled goat-anti-human IgG (H+L) secondary antibody. An irrelevant isotype-matched IgG1 MAb was used as a control.

Experiment [2] concerns the target T2, human TLR4 alone in transfected HEK 293 cells (human, UniProt O00206 24-839).
T2 construct: whole, on cells; also called TLR4 alone in transfected cell lysates
The experiment in a line: FACS on transiently transfected HEK 293 cells, 15C1 at 10 µg/ml. Here is the method: (§2) FIGS. 17A-17F are a series of graphs depicting the specificity of the 15C1 monoclonal antibody for TLR4. The specificity of the 15C1 antibody is shown by flow cytometry analysis of HEK 293 cells transiently transfected with either mock vector, i.e., empty vector (FIG. 17A), human TLR4 (FIG. 17B), human TLR4 and human MD-2 (FIG. 17C), rabbit TLR4 and rabbit MD-2 (FIG. 17D), human TLR4 and rabbit MD-2 (FIG. 17E), or rabbit TLR4 and human MD-2 (FIG. 17F). Cells were incubated with the 15C1 monoclonal antibody (10 μg/ml), followed by an APC-coupled α-mouse (H+L) antibody.
(§3) HEK 293 cells were plated in 6 well plates at a density of 2.5×10⁵ cells/well in 2 ml culture medium containing 10% FBS. 16 hours post-plating, cells were transfected with 0.75 μg of the appropriate vector(s) using Fugene™ reagent (Roche) according to the manufacturer's guidelines. 48 hours post-transfection, cells were stained with the appropriate monoclonal antibody (as indicated in FIGS. 4A-4L) and an APC-coupled goat anti-mouse IgG (H+L) antibody (Molecular Probes) and analyzed using the FACScalibur in the FL-4 channel.

The target in experiment [3] is T3, human TLR4 and human MD-2 on transiently transfected HEK 293 cells (human, UniProt O00206 24-839; Q9Y6Y9 19-160).
T3 construct: whole, on cells; also called human TLR4/MD-2 complex
Described as above. Here is the method:
as §2, §3

Experiment [4] has as its target T1, human TLR4/MD-2 complex on the surface …. Put plainly: flow cytometry, mock transfected vs. TLR4/MD-2 transfected cells. In general terms: Flow cytometry measures light scatter and fluorescence of single cells or particles in a stream.
Experiment [5] shares this target. The experiment in a line: flow cytometry on TLR4/MD-2 transfected CHO cells, against an isotype matched control monoclonal antibody.
From the text: FIG. 19 is a graph depicting that the VH and VL nucleotide sequence of 15C1 expressed as a chimeric MAb (“chimeric 15C1”) is capable of binding specifically to the human TLR4/MD-2 complex on the surface of transfected CHO cells. MAb binding to the TLR4/MD-2 complex is shown by flow cytometry using chimeric 15C1 or an isotype matched control monoclonal antibody at the indicated concentration.
as §1

The target in experiment [6] is T2, human TLR4 alone in transfected HEK 293 …. Put plainly: FACS on HEK 293 cells transfected with human TLR4 alone. Here is the method: (§4) FIGS. 24A-24F is a series of graphs depicting the specificity of the 7E3 monoclonal antibody for the TLR4/MD-2 complex. The specificity of the 7E3 antibody is shown by flow cytometry analysis of HEK 293 cells transiently transfected with either mock vector (FIG. 24A), human TLR4 (FIG. 24B), human TLR4 and human MD-2 (FIG. 24C), rabbit TLR4 and rabbit MD-2 (FIG. 24D), human TLR4 and rabbit MD-2 (FIG. 24E), or rabbit TLR4 and human MD-2 (FIG. 24F). Cells were incubated with the 7E3 monoclonal antibody (10 μg/ml), followed by an APC-coupled α-mouse (H+L) antibody.
as §3

The target of experiment [7] is T3, human TLR4 and human MD-2 on …. The experiment in a line: FACS on transiently transfected HEK 293 cells, 7E3 at 10 µg/ml. As for the experimental part:
as §4, §3

Experiment [8] shares this target. Put plainly: FACS on transiently transfected HEK 293 cells. Here is the method: FIGS. 4A-4L are a series of graphs depicting the specificity of the 18H10 monoclonal antibody for MD-2. The specificity of the 18H10 antibody is shown by flow cytometry analysis of HEK 293 cells transiently transfected with either human TLR4 and human MD-2 (FIG. 4A, FIG. 4E and FIG. 4I); rabbit TLR4 and rabbit MD-2 (FIG. 4B, FIG. 4F and FIG. 4J); human TLR4 and rabbit MD-2 (FIG. 4C, FIG. 4G and FIG. 4K); or rabbit TLR4 and human MD-2 (FIG. 4D, FIG. 4H and FIG. 4L). Cells were incubated with either α-FLAG™ antibody (to detect TLR4 expression); α-C-myc antibody (to detect MD-2 expression) or the 18H10 monoclonal antibody, followed by an APC-coupled α-mouse (H+L) antibody.
FIGS. 12A-12L is a series of graphs depicting the specificity of the 16G7 monoclonal antibody for TLR4. […]
HEK 293 cells were plated in 6 well plates at a density of 2.5×10⁵ cells/well in 2 ml culture medium containing 10% FBS. […] 48 hours post-transfection, cells were stained with the appropriate monoclonal antibody (as indicated in FIGS. 4A-4L) and an APC-coupled goat anti-mouse IgG (H+L) antibody (Molecular Probes) and analyzed using the FACScalibur in the FL-4 channel.

Experiment [9] deals with T1, human TLR4/MD-2 complex on the surface …. Put plainly: FACS of hybridoma supernatant on mock vs. TLR4/MD-2 transfected CHO cells. As for the experimental part: Mice immunized with CHO cells expressing surface TLR4/MD-2 were monitored for specific serum titers. […] This strategy was chosen in order to minimize the response to non-specific CHO cellular antigens, while simultaneously maximizing the TLR4/MD-2-specific response. Screening by FACS of supernatants from hybridomas resulting from B cell/myeloma fusions was performed on mock transfected vs. TLR4/MD-2 transfected CHO cells.

T3 sequence (O00206 24-839, chain 1 of 2): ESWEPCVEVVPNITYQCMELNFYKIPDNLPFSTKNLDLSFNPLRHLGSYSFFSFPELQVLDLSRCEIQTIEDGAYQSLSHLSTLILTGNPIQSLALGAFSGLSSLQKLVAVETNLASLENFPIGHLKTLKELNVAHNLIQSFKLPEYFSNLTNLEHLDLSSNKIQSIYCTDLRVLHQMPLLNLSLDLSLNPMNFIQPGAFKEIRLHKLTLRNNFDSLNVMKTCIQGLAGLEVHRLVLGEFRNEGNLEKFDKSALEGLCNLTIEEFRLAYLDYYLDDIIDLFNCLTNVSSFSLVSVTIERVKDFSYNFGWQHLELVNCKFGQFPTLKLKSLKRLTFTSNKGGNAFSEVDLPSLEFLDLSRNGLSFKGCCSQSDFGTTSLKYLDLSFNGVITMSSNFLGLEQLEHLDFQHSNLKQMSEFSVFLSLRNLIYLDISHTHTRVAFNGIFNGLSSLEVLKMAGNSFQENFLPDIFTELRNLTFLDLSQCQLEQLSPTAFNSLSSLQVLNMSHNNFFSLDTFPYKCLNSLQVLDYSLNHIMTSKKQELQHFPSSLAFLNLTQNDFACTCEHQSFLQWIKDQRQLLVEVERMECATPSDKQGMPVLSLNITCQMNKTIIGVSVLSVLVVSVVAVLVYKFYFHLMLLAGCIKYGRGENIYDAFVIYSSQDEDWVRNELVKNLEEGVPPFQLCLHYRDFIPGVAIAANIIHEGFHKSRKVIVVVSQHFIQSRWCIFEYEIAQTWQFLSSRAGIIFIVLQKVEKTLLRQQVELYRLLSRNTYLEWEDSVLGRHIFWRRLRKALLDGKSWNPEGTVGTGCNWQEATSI
T3 sequence (Q9Y6Y9 19-160, chain 2 of 2): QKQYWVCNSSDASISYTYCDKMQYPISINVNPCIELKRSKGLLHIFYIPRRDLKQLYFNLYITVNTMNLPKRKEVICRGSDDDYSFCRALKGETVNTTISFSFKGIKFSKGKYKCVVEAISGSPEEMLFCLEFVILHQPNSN
T1 sequence (O00206 24-839, chain 1 of 2): as the sequence (O00206 24-839, chain 1 of 2) above
T1 sequence (Q9Y6Y9 19-160, chain 2 of 2): as the sequence (Q9Y6Y9 19-160, chain 2 of 2) above
T2 sequence (O00206 24-839): as the sequence (O00206 24-839, chain 1 of 2) above

B1: chimeric 18H10 MAb (antibody, V domains shown)
VH: QVQLQQSGADLVRPGALVKLSCTASGFNIKDSYIHWVKKRPEWGLEWIGWTDPENVNSIYDPRFQGKASITADTSSNTAFLQLTSLTSEDTAVYYCARGYNGVYYAMDYWGQGTTVTVSS
VL: QIVLTQSPSIMSASLGEEITLTCSASSSVIYMHWYQQKSGTSPKLLIYRTYNLASGVPSRFSGSGSGTFYSLTISSVEAEDAADYYCHQWSSFPYTFGGGTKLEIKR
With B1, the binding result in experiment [1] is “binds”.

B2: 15C1 monoclonal antibody (antibody, IgG1, V domains shown)
VH: DVQLQESGPDLIQPSQSLSLTCTVTGYSITGGYSWHWIRQFPGNKLEWMGYIHYSGYTDFNPSLKTRISITRDTSKNQFFLQLNSVTTEDTATYYCARKDPSDGFPYWGQGTLVTVSA
VL: DIVMTQSPATLSVTPGDRVSLSCRASQSISDHLHWYQQKSHESPRLLIKYASHAISGIPSRFSGSGSGTDFTLSIKSVEPEDIGVYYCQNGHSFPLTFGAGTKLELKR
notes: also called 15C1 MAb; 15C1 mouse MAb
For B2, the binding result in experiment [2], in experiment [3] and in experiment [4] was “binds” throughout.

B3: chimeric 15C1 MAb (antibody, V domains shown)
VH: B2 VH
VL: B2 VL
notes: also called chimerical 15C1
Turning to B3, the binding result in experiment [5] is recorded as “binds”.

B4: 7E3 monoclonal antibody (antibody, IgG1, V domains shown)
VH: QVTLKESGPGILQPSQTLSLTCSFSGFSLTTYNIGVGWIRQPSGKGLEWLAHIWWNDNIYYNTVLKSRLTFSKDTSNNQVFLKIASVDIADTATYYCIRMAEGRYDAMDYWGQGTSVTVSS
VL: AIQMTQSTSSLSASLGDRVTINCRASQDITNYLNWYQQKPDGTVRLLIYYTSKLHSGAPSRFSGRGSGTDYSLTISNLEQEDIATYFCQQGNTFPWTFGGGTKLEIKR
For B4, the binding result is given as “no binding (tested: 10 µg/ml)” in [6], “binds” in [7] and “binds” in experiment [4].

B5: chimeric 7E3 MAb (antibody, V domains shown)
VH: B4 VH
VL: B4 VL
For B5, the binding result in [1] was “binds”.

B6: 16G7 monoclonal antibody (antibody, IgG1, V domains shown)
VH: QVKLQESGAELMKPGASVKISCKATGYKFSDYWIEWIKQRPGHGLEWIGEILPGSGSTNYNEDFKDKATFTSDTSSNTAYMQLSSLTSEDSAVYYCAKEERAYYFGYWGQGTTVTVSS
VL: DVLMTQTPLSLPVSLGDQASISCRSSQSLENSNGNTYLNWYLQKPGQSPQLLIYRVSNRFSGVLDRFSGSGSGTDFTLKISRVEAEDLGVYFCLQVTHVPPTFGAGTKLELKR
For B6, the binding result in experiment [8] and in [9] was “binds” throughout.
